Measurements reported in patent US20080020405A1, “Protein binding determination and manipulation” (priority 2002, published 2008).

Target: T1, WT SCCE (Stratum Corneum Chymotryptic Enzyme) (Homo sapiens, UniProt P49862)
T1 construct: made in house; host or cells: High 5 insect cells, transient transfection with pIE1-153A V4+ plasmid, protein secreted into the medium, Ni-NTA purified
Test: Panning of the 6mer tandem phage peptide display library against WT SCCE, four rounds, clones sequenced
Assay type: binding
Conditions: for Hypervarible Domain, DNA sequence of clone, 6 mer Lib Panning Round 4 SCCE WT / Hypervarible Domain, peptide sequence of clone, 6 mer Lib Panning Round 4 SCCE WT: 6mer library, panning round 4 against SCCE WT; for Hypervarible Domain, DNA sequence of clone, 6 mer Lib Panning Round 4 SCCE WT: flanking TGC (Cys) codons; for Hypervarible Domain, peptide sequence of clone, 6 mer Lib Panning Round 4 SCCE WT: translated hexapeptide
Experimental: Packaging of Phagemids from Cells • 1. Re-suspend the complete lawns of the E. coli cells in 20 ml of LB/Amp/Tc medium and use 2 ml for inoculation of 50 ml LB/Amp/Tc medium (250 ml Erlenmeyer flask). • 1. Incubate at 180 rpm and 37° C. for 1 hour, add […] of M13K07 stock solution (10^11-10^12 cfu/ml) and incubate for 15 minutes at 37° C. without shaking. • 2. Allow the culture to shake at 37° C. for 45 min, then add Kanamycin (final concentration of 50 μg/ml) and continue the incubation at 37° C. @ 180 rpm overnight. • 3. The next day, centrifuge for 15 minutes at 8,000 rpm and 4° C. (GS3 rotor, Sorvall RC5C). • 4. Transfer the supernatant into a new centrifuge bottle and centrifuge again. • 5. Transfer the supernatant again, add 0.15 vol of PEG/NaCl solution, mix and incubate on ice for at least 2 hours. • 6. Centrifuge for 40 minutes at 8,000 rpm (GS3 rotor) • 7. Decant the supernatant, repeat the centrifugation for 1 minute at 4,000 rpm and remove last traces of supernatant using a pipet. • 8. Re-suspend each PEG-pellet in 1.0 ml PBS solution and collect the re-suspended phages in one SS34 centrifuge bottle • 9. To clear the suspension, centrifuge again for 10 minutes at 12,000 rpm (SS34 rotor). • 10. Recover the supernatant (pipet), add NaN3 to a final concentration of 0.02% and store the library at 4° C. Determination of Phagemid (Library) Titer (Colony Forming Units [CFU] Assay) • 1. Inoculate 20 ml of LB/Tc (20 μg/ml) medium with 200 μl of an E. coli WK6λmutS overnight culture (37° C.; LB/Tc) and incubate at 37° C. and 180 rpm for 2 to 3 hours (OD600=0.5) • 2. Fill 12 wells of a sterile 96-well culture dish with 90 μl of autoclaved water and prepare dilution series by transferring 10 μl aliquots of the library stock (dilutions 10^−1 to 10^−12). • 3. Add 100 μl of logarithmic growing cells, mix and incubate for 30 min at 37° C. • 4. Spot 20 μl portions of each well on LB/Amp/Tc agar plates and incubate over night at 37° C. • 5. As a control use 20 μl of non-infected log-phase cells spotted on LB/Amp/Tc and LB/Tc agar plates. • 6. Count the number of colonies on the next day and determine the titer. Panning Protein Targets • WT SCCE is the Stratum Corneum Chymotryptic Enzyme subdloned in the pIE vector and adapted with a carboxy-terminal polyglycine linker and polyhistidine sequence to facilitate purification and immobilization (see WT SCCE preparation below). The adaptations were performed using a QuickChange mutagenesis kit. The sequence is listed in document SCCE His6 pIE.doc. • Fyn SCCE is the Stratum Corneum Chymotryptic Enzyme adapted with a polyglycine liker, the Fyn SH3 domain and additional polyglycine linker and a polyhistidine sequence (see Fyn SCCE preparation below). The final sequence is listed in document SCCE FYN His6 pIE.doc. The modifications to create Fyn SCCE were performed using WT SCCE as a template using a QuickChange mutagenesis kit. • The expression and purification of WT SCCE and Fyn SCCE are presented in document SCCE production.doc Pre-Adsorption of Library with Matrix to Remove Non-Specific Binding • 1. Take 25 μl Ni-NTA Magnetic Agarose Beads (Qiagen) in a 1.5 ml tube (siliconized), labeled pre-adsorption library. • 2. Place in Magnet and remove Sup. • 3. Wash 2 times (2 min each time) with 500 μl Ni-NTA Binding Buffer (50 mM NaH2PO4 pH8.0, 300 mM NaCl, 10 mM Imidazole) to equilibrate beads to Immidizole. • 4. Add 200 μl TBS-T 0.1% BSA+200 μl (10^12 phage) of 6mer library to tube labeled pre-adsorption library (to remove phage that stick non-specifically to the beads). • 5. Incubate @ room temperature for 1 h w/rotation. Coating Matrix with Target Protein • 6. Take 25 μl Ni-NTA Magnetic Agarose Beads (Qiagen) in 2 separate 1.5 ml Ep tubes (siliconized), labeled SSCE-WT and SCCE-FYN. • 7. Place in Magnet and remove Sup. • 8. Wash 2 times (2 min each time) with (500 μl) Ni-NTA Binding Buffer (50 mM NaH2PO4 pH8.0, 300 mM NaCl, 10 mM Imidazole) to equilibrate beads to Immidizole. • 9. […]

T1 sequence (P49862 30-253): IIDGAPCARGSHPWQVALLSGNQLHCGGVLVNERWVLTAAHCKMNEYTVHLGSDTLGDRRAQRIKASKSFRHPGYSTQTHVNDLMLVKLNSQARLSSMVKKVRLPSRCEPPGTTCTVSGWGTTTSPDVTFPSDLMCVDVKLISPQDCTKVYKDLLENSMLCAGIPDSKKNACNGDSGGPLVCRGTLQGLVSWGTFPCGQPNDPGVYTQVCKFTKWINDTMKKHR

Substance | Hypervarible Domain, DNA sequence of clone, 6 mer Lib Panning Round 4 SCCE WT | Hypervarible Domain, peptide sequence of clone, 6 mer Lib Panning Round 4 SCCE WT | Clone sequence also found in the other panning (remark) (panning round 4 SCCE WT)
041307_3 (QPHTWK; printed: Gln Pro His Thr Trp Lys) | TGCCAGCCGCATACGTGGAAGTGC | Gln Pro His Thr Trp Lys | (Also in SCCE FYN)
041307_5 (KQNSEA; printed: Lys Gln Asn Ser Glu Ala) | TGCAAGCAGAATAGTGAGGCGTGC | Lys Gln Asn Ser Glu Ala | 
041307_7 (PVAETP; printed: Pro Val Ala Glu Thr Pro) | TGCCCTGTGGCGGAGACGCCTTGC | Pro Val Ala Glu Thr Pro | 
041307_10 (SHVRRN; printed: Ser His Val Arg Arg Asn) | TGCAGTCATGTTAGGCGTAATTGC | Ser His Val Arg Arg Asn | 
041307_11 (HHGLIV; printed: His His Gly Leu Ile Val) | TGCCATCATGGGCTTATTGTGTGC | His His Gly Leu Ile Val | 
041307_12 (YAKTMR; printed: Tyr Ala Lys Thr Met Arg) | TGCTATGCGAAGACGATGCGGTGC | Tyr Ala Lys Thr Met Arg | 
041307_18 (HHGLIV; printed: His His Gly Leu Ile Val) | TGCCATCATGGGCTTATTGTGTGC | His His Gly Leu Ile Val | 
041307_22 (HHGLIV; printed: His His Gly Leu Ile Val) | TGCCATCATGGGCTTATTGTGTGC | His His Gly Leu Ile Val | 
041307_25 (TPKAKP; printed: Thr Pro Lys Ala Lys Pro) | TGCACTCCTCTGGCGCTTCCTTGC | Thr Pro Lys Ala Lys Pro | 
041307_29 (HHGLIV; printed: His His Gly Leu Ile Val) | TGCCATCATGGGCTTATTGTGTGC | His His Gly Leu Ile Val | 
041307_30 (PNNKIR; printed: Pro Asn Asn Lys Ile Arg) | TGCCCGAATAATAAGATTAGGTGC | Pro Asn Asn Lys Ile Arg | 
041307_31 (TSTRPP; printed: Thr Ser Thr Arg Pro Pro) | TGCACTTCTACTAGGCCTCCTTGC | Thr Ser Thr Arg Pro Pro | 
041307_32 (HMNMYI; printed: His Met Asn Met Tyr Ile) | TGCCATATGAATATGTATATTTGC | His Met Asn Met Tyr Ile | 

Other lines, results leading:

Hypervarible Domain, DNA sequence of clone, 6 mer Lib Panning Round 4 SCCE WT | Hypervarible Domain, peptide sequence of clone, 6 mer Lib Panning Round 4 SCCE WT | Clone sequence also found in the other panning (remark) (panning round 4 SCCE WT) | Substance
TGCACGGCTGCGGTGGATCAGTGC | Thr Ala Ala Val Asp Gln |  | 041307_4 (TAAVDQ; printed: Thr Ala Ala Val Asp Gln)
TGCACGCCTAATTCTGCGATTTGC | Thr Pro Asn Ser Ala Ile |  | 041307_8 (TPNSAI; printed: Thr Pro Asn Ser Ala Ile)
TGCCATCATGGGCTTATTGTGTGC | His His Gly Leu Ile Val |  | 041307_17 (HHGLIV; printed: His His Gly Leu Ile Val)
TGCCATCATGGGCTTATTGTGTGC | His His Gly Leu Ile Val |  | 041307_19 (HHGLIV; printed: His His Gly Leu Ile Val)
TGCAAGAAGAAGAAGACGAAGTGC | Lys Lys Lys Lys Thr Lys |  | 041307_27 (KKKKTK; printed: Lys Lys Lys Lys Thr Lys)
TGCACGGGGGCGGGGCGGTCGTGC | Thr Gly Ala Gly Arg Ser |  | 041307_35 (TGAGRS; printed: Thr Gly Ala Gly Arg Ser)
